Data taken from paper PMC6768288, “Biochemical and structural characterization of tyrosine aminotransferase suggests broad substrate specificity and a two‐state folding mechanism in Leishmania donovani” (FEBS Open Bio, 2019).

Legend:
Assay in all cases: purified protein
Type in all cases: biochemical, Leishmania donovani
[1] = substrate: N[C@@H](Cc1ccc(O)cc1)C(=O)O; conditions: co-substrate sodium pyruvate 100 mM; Tyr 0-7 mM; PLP 30 μM, 37 °C
[2] = substrate: N[C@@H](Cc1ccccc1)C(=O)O; conditions: co-substrate sodium pyruvate 100 mM; Phe 0-7 mM; PLP 30 μM, 37 °C
[3] = substrate: CSCCC(=O)C(=O)O; conditions: co-substrate Tyr 4 mM; KMB 0-4.5 μM; PLP 30 μM, 37 °C
[4] = substrate: Cc1ncc(COP(=O)(O)O)c(C=O)c1O; conditions: tyrosine-sodium pyruvate as substrates; covalent internal aldimine with K286; varied: cofactor
[5] = substrate: CC(=O)C(=O)O; conditions: co-substrate Tyr 4 mM; sodium pyruvate 0-200 mM; PLP 30 μM, 37 °C
[6] = substrate: N[C@@H](Cc1c[nH]c2ccccc12)C(=O)O; conditions: co-substrate sodium pyruvate 100 mM; Trp 0-7 mM; PLP 30 μM, 37 °C

B1: LdTAT (Leishmania donovani) (protein)
chain: MTIDTQAAPAAQTLKAGNATGSLTEERREVEQQRAAENTSFRRIASSKHAQRTLQPLNNLTDNMKPSRSTKSNLRLSIGDPTVDGNLKTPDIVTEAMVDIVRSGKFNGYPPTVGADNLRQVVSTYWRRFCQTKSRQEALKWENVIITSGVSQAIVLALTALCNEGDNILVCAPSFPHYKSVCDSYGIECRYYYLDPSKSWECDLRAAAGMVDSHTKAFVIINPSNPCGSNFSRAHVSDIIDFCQQHQIPLISDEIYAEMVLNNGIFTSVADFDTNVPRLILGGTAKYQVCPGWRVGWSILIDPMNVAGDWAVGMERLTQLIAGVNSICQEAIARTLLKCPAECTEHIVTQLEAGAKVYARLLEHDIGISMEAPQASMFVMLKLNLSYFQDLKSDMEFYEKLLDEENVQVLPGEIFGMSGFLRATVSRPSAVLNEAVDRIIEFCERHKK
notes: full-length ORF 1347 bp (448 residues from ORF length) amplified from L. donovani genomic DNA; pET28a(+) BamHI/HindIII, His-tagged, E. coli BL21, Ni-NTA
Km [1]: 3.5 ± 0.90 mM | Vmax [1]: 11700 µM/min/mg | Km [2]: 3.752 ± 0.96 mM | Vmax [2]: 19800 µM/min/mg | Km [3]: 0.0008103 ± 0.00011 mM | Vmax [3]: 1850 µM/min/mg | Km [4]: 0.02359 ± 0.00399 mM | Km [5]: 42.67 ± 0.38 mM | Vmax [5]: 8600 µM/min/mg | Km [6]: 5.055 ± 0.42 mM | Vmax [6]: 19900 µM/min/mg
